# Reference: the supplement of paper PMC10724198
# ± gives the standard deviation of the averaged measurements.
# Tests used:
# Saccharomyces cerevisiae [1] = assay: protein stability index of tFT-peptide fusion (C-terminal peptide) (PSI (0-1 scale)); higher = more stable (slower turnover); settings: genetic background: wild type; temperature: 30 C
# Saccharomyces cerevisiae [2] = assay: as above
# Method: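 MPS profiling in S. cerevisiae of the tFT-X12 degron library: putative degron peptides plus stable controls, 12 aa, fused to the C-terminus of a sfGFP-mCherry timer. Cells are FACS-sorted into 8 mCherry/sfGFP bins and deep-sequenced. PSI runs from 0 (unstable) to 1 (stable). Backgrounds are wild type, das1Δ and doa10Δ at 30 °C, and wild type, das1Δ, cdc34-1 and cdc53-1 at 37 °C; 2-3 technical replicates each.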
# [3] = genetic background: cdc34-1, temperature: 37 C
# [4] = genetic background: cdc53-1, temperature: 37 C
# [5] = genetic background: das1 deletion, temperature: 30 C
# [6] = genetic background: das1 deletion, temperature: 37 C
# [7] = genetic background: doa10 deletion, temperature: 30 C
# [8] = genetic background: wild type, temperature: 30 C
# [9] = genetic background: wild type, temperature: 37 C
# 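Note: PSI is a weighted mean of sequencing reads over stability bins, variants kept only with over 10 reads, mCherry proximal and sfGFP distal, peptide attached via GGGS linker.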
Sequence,protein stability index (Saccharomyces cerevisiae [1]),protein stability index (Saccharomyces cerevisiae [2]; [3]),protein stability index (Saccharomyces cerevisiae [2]; [4]),protein stability index (Saccharomyces cerevisiae [2]; [5]),protein stability index (Saccharomyces cerevisiae [2]; [6]),protein stability index (Saccharomyces cerevisiae [2]; [7]),protein stability index (Saccharomyces cerevisiae [2]; [8]),protein stability index (Saccharomyces cerevisiae [2]; [9])
LLLVSLAVPLSL,0.509 ± 0.022,0.524 ± 0.013,0.569 ± 0.014,0.465 ± 0.017,0.559 ± 0.021,0.451 ± 0.03,0.459 ± 0.02,0.539 ± 0.0084
LLSLPTTNLMAF,0.484 ± 0.014,0.575 ± 0.029,0.61058 ± 0.00044,0.49 ± 0.026,0.615 ± 0.0099,0.356 ± 0.02,0.403 ± 0.018,0.56467 ± 0.00055
LLTLILRIFVLN,0.225 ± 0.024,0.304 ± 0.031,0.451 ± 0.0055,0.316 ± 0.028,0.476 ± 0.028,0.144 ± 0.01,0.147 ± 0.028,0.217 ± 0.037
LLVFFLAIPSLV,0.337 ± 0.031,0.286 ± 0.011,0.343 ± 0.02,0.23 ± 0.037,0.413 ± 0.0073,0.195 ± 0.014,0.219 ± 0.033,0.3853 ± 0.002
LLVFSLLYPCLV,0.345 ± 0.021,0.324 ± 0.0049,0.362 ± 0.017,0.289 ± 0.031,0.419 ± 0.013,0.241 ± 0.0036,0.272 ± 0.02,0.3913 ± 0.0032
LLVIAIKVPANS,0.429 ± 0.024,0.489 ± 0.013,0.485 ± 0.0072,0.352 ± 0.025,0.507 ± 0.018,0.337 ± 0.036,0.358 ± 0.012,0.485 ± 0.00075
LLVYLYFFFSCS,0.374 ± 0.022,0.309 ± 0.041,0.442 ± 0.045,0.292 ± 0.021,0.484 ± 0.005,0.2414 ± 0.0016,0.263 ± 0.011,0.42 ± 0.027
LLYHFCLFFFRE,0.513 ± 0.044,0.521 ± 0.044,0.592 ± 0.037,0.462 ± 0.024,0.619 ± 0.014,0.441 ± 0.015,0.449 ± 0.011,0.558 ± 0.053
LMVLISVMFSLG,0.323 ± 0.022,0.112 ± 0.0088,0.254 ± 0.029,0.149 ± 0.022,0.292 ± 0.012,0.113 ± 0.013,0.182 ± 0.032,0.231 ± 0.012
LMWVFPRVVWLY,0.0903 ± 0.014,0.123 ± 0.037,0.102 ± 0.016,0.244 ± 0.042,0.321 ± 0.022,0.0838 ± 0.0041,0.0646 ± 0.0052,0.0611 ± 0.00062
LPLHTLLLCPPV,0.493 ± 0.031,0.447 ± 0.037,0.459 ± 0.013,0.37 ± 0.03,0.4988 ± 0.003,0.345 ± 0.0046,0.382 ± 0.024,0.4782 ± 0.0033
LPLVFYCFLLHS,0.4422 ± 0.002,0.49 ± 0.026,0.523 ± 0.0057,0.394 ± 0.029,0.518 ± 0.0063,0.386 ± 0.01,0.376 ± 0.035,0.509 ± 0.015
LPVPVLGFPPLA,0.7186 ± 0.0014,0.703 ± 0.022,0.778 ± 0.018,0.664 ± 0.018,0.732 ± 0.032,0.659 ± 0.027,0.655 ± 0.015,0.71 ± 0.011
LRCCGALPLYAY,0.348 ± 0.018,0.251 ± 0.038,0.248 ± 0.03,0.238 ± 0.038,0.3968 ± 0.0033,0.189 ± 0.014,0.228 ± 0.028,0.341 ± 0.022
LRFFYFLHFCIL,0.277 ± 0.03,0.36 ± 0.033,0.366 ± 0.024,0.43 ± 0.018,0.504 ± 0.0076,0.256 ± 0.0083,0.223 ± 0.0052,0.286 ± 0.021
LRRVHRIKLQVC,0.178 ± 0.094,0.254 ± 0.06,0.431 ± 0.035,0.288 ± 0.029,0.477 ± 0.014,0.0938 ± 0.0029,0.0996 ± 0.015,0.102 ± 0.0019
LRVAWVCISIVA,0.117 ± 0.027,0.0375 ± 0.005,0.0899 ± 0.006,0.0876 ± 0.023,0.164 ± 0.0029,0.0363 ± 0.011,0.0495 ± 0.015,0.0664 ± 0.0091
LRVPCPPCCVFV,0.398 ± 0.027,0.568 ± 0.049,0.69936 ± 0.0003,0.616 ± 0.016,0.727 ± 0.0099,0.33 ± 0.015,0.334 ± 0.009,0.4302 ± 0.0026
LSQPGWFKCCLS,0.42 ± 0.013,0.653 ± 0.014,0.737 ± 0.05,0.662 ± 0.029,0.7677 ± 0.00079,0.308 ± 0.023,0.326 ± 0.023,0.463 ± 0.029
LSRFRYFVLTSL,0.261 ± 0.041,0.531 ± 0.026,0.6913 ± 0.0028,0.608 ± 0.018,0.698 ± 0.033,0.146 ± 0.015,0.171 ± 0.019,0.263 ± 0.037

Sequence,protein stability index (Saccharomyces cerevisiae [1]),protein stability index (Saccharomyces cerevisiae [2]; [3]),protein stability index (Saccharomyces cerevisiae [2]; [4]),protein stability index (Saccharomyces cerevisiae [2]; [5]),protein stability index (Saccharomyces cerevisiae [2]; [6]),protein stability index (Saccharomyces cerevisiae [2]; [7]),protein stability index (Saccharomyces cerevisiae [2]; [8]),protein stability index (Saccharomyces cerevisiae [2]; [9])
LSVSEILAVKCG,0.489 ± 0.012,0.559 ± 0.034,0.584 ± 0.0073,0.429 ± 0.034,0.592 ± 0.026,0.363 ± 0.0039,0.411 ± 0.026,0.5632 ± 0.0052
LTACRYVCFLLF,0.261 ± 0.041,0.575 ± 0.019,0.644 ± 0.018,0.561 ± 0.017,0.676 ± 0.037,0.239 ± 0.0088,0.261 ± 0.032,0.424 ± 0.012
LTFRFGVNPYVF,0.323 ± 0.011,0.631 ± 0.034,0.748 ± 0.013,0.634 ± 0.019,0.752 ± 0.024,0.132 ± 0.0056,0.14 ± 0.023,0.283 ± 0.015
LVLELYRFARFG,0.3197 ± 0.0012,0.636 ± 0.03,0.7337 ± 0.0046,0.643 ± 0.0069,0.742 ± 0.015,0.2704 ± 0.00045,0.276 ± 0.043,0.532 ± 0.038
LVLFVVGGWVSL,0.445 ± 0.043,0.35 ± 0.023,0.474 ± 0.082,0.316 ± 0.023,0.551 ± 0.014,0.279 ± 0.0085,0.311 ± 0.029,0.54 ± 0.076
LVSLCYAYPRYC,0.387 ± 0.025,0.646 ± 0.016,0.685 ± 0.008,0.532 ± 0.016,0.7025 ± 0.0052,0.2577 ± 0.00032,0.279 ± 0.031,0.5826 ± 0.0029
LVVAVLKIIMSS,0.124 ± 0.027,0.13 ± 0.023,0.201 ± 0.00098,0.2 ± 0.033,0.349 ± 0.013,0.0697 ± 0.012,0.0742 ± 0.023,0.0596 ± 0.0031
LWFLDYVFICFL,0.382 ± 0.022,0.335 ± 0.017,0.347 ± 0.025,0.33 ± 0.034,0.452 ± 0.012,0.3673 ± 0.0034,0.299 ± 0.018,0.399 ± 0.011
LWFRCVRMQACR,0.507 ± 0.032,0.47 ± 0.031,0.51569 ± 0.00022,0.411 ± 0.019,0.5101 ± 0.0028,0.42 ± 0.025,0.41 ± 0.015,0.492 ± 0.0094
LWLFIVCWVGCV,0.247 ± 0.033,0.234 ± 0.017,0.301 ± 0.044,0.201 ± 0.019,0.339 ± 0.014,0.1847 ± 0.00077,0.177 ± 0.025,0.31 ± 0.0052
LWLVSLLVLWLT,0.316 ± 0.018,0.332 ± 0.035,0.375 ± 0.033,0.291 ± 0.033,0.439 ± 0.011,0.239 ± 0.0059,0.256 ± 0.02,0.383 ± 0.013
LWNFYELVVYAM,0.212 ± 0.018,0.046 ± 0.016,0.0695 ± 0.046,0.159 ± 0.035,0.153 ± 0.04,0.103 ± 0.021,0.121 ± 0.019,0.114 ± 0.0054
LYLFKVLFFRVF,0.104 ± 0.048,0.122 ± 0.047,0.173 ± 0.026,0.286 ± 0.045,0.458 ± 0.06,0.0857 ± 0.0067,0.0584 ± 0.016,0.102 ± 0.015
LYYSVIFLFLSW,0.339 ± 0.047,0.255 ± 0.0028,0.306 ± 0.023,0.232 ± 0.033,0.371 ± 0.016,0.272 ± 0.036,0.208 ± 0.026,0.334 ± 0.033
MACLRLTVYVMG,0.283 ± 0.017,0.0763 ± 0.013,0.0769 ± 0.045,0.135 ± 0.031,0.2187 ± 0.0016,0.088 ± 0.034,0.13 ± 0.026,0.202 ± 0.0036
MALAVRVVACGA,0.261 ± 0.0094,0.125 ± 0.032,0.1647 ± 0.0014,0.196 ± 0.026,0.281 ± 0.0065,0.157 ± 0.012,0.19 ± 0.024,0.236 ± 0.0084
MFLHLGLFIMSH,0.382 ± 0.037,0.348 ± 0.011,0.4065 ± 0.0032,0.303 ± 0.025,0.457 ± 0.0099,0.2787 ± 0.0023,0.306 ± 0.014,0.435 ± 0.006
MFWKFVFRGFWF,0.338 ± 0.018,0.694 ± 0.064,0.739 ± 0.008,0.641 ± 0.034,0.7791 ± 0.0044,0.221 ± 0.0052,0.259 ± 0.019,0.4748 ± 0.0044
MMEMMTKSNRIP,0.517 ± 0.025,0.683 ± 0.029,0.737 ± 0.015,0.63 ± 0.016,0.709 ± 0.04,0.4 ± 0.02,0.446 ± 0.074,0.639 ± 0.016
